Non-standard residues stand in square brackets, D forms with d. tBuAla = CC(C)(C)C[C@H](N)C(=O)O; Cha = N[C@@H](CC1CCCCC1)C(=O)O; Aib = CC(C)(N)C(=O)O
T1: human Y2 receptor (human, UniProt P49146 1-381)
T1 sequence (looked up): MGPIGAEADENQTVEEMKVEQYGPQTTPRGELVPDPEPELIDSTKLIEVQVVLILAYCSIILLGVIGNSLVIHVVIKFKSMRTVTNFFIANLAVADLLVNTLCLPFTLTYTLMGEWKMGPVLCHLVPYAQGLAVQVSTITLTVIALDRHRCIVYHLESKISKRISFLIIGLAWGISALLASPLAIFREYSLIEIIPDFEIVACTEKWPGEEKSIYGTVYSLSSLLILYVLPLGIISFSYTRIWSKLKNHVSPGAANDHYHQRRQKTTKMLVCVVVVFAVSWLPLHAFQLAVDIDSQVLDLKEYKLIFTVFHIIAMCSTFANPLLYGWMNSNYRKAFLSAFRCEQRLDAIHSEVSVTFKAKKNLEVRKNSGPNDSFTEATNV

B1: Ac-[D-Pro24, Cha27,36, Aib28, Lys30, Aib31]-PYY(23-36) (peptide)
peptide: Ac-S[dP]RH[Cha][Aib]NK[Aib]TRQR[Cha]-NH2
SMILES: CC(=O)N[C@@H](CO)C(=O)N1CCC[C@@H]1C(=O)N[C@@H](CCCNC(=N)N)C(=O)N[C@@H](Cc1c[nH]cn1)C(=O)N[C@@H](CC1CCCCC1)C(=O)NC(C)(C)C(=O)N[C@@H](CC(N)=O)C(=O)N[C@@H](CCCCN)C(=O)NC(C)(C)C(=O)N[C@H](C(=O)N[C@@H](CCCNC(=N)N)C(=O)N[C@@H](CCC(N)=O)C(=O)N[C@@H](CCCNC(=N)N)C(=O)N[C@@H](CC1CCCCC1)C(N)=O)[C@@H](C)O
notes: also called compound No. 135
B2: Ac-[D-Pro24, Cha27,36, Leu(Me)28, Lys30, Aib31]-PYY(23-36) (peptide)
peptide: Ac-S[dP]RH[Cha][tBuAla]NK[Aib]TRQR[Cha]-NH2
SMILES: CC(=O)N[C@@H](CO)C(=O)N1CCC[C@@H]1C(=O)N[C@@H](CCCNC(=N)N)C(=O)N[C@@H](Cc1c[nH]cn1)C(=O)N[C@@H](CC1CCCCC1)C(=O)N[C@@H](CC(C)(C)C)C(=O)N[C@@H](CC(N)=O)C(=O)N[C@@H](CCCCN)C(=O)NC(C)(C)C(=O)N[C@H](C(=O)N[C@@H](CCCNC(=N)N)C(=O)N[C@@H](CCC(N)=O)C(=O)N[C@@H](CCCNC(=N)N)C(=O)N[C@@H](CC1CCCCC1)C(N)=O)[C@@H](C)O
notes: also called compound No. 136
B3: Ac-[D-Thr23, D-Pro24, Cha27,28,36, Aib31]-PYY(23-36) (peptide)
peptide: Ac-[dT][dP]RH[Cha][Cha]NL[Aib]TRQR[Cha]-NH2
SMILES: CC(=O)N[C@@H](C(=O)N1CCC[C@@H]1C(=O)N[C@@H](CCCNC(=N)N)C(=O)N[C@@H](Cc1c[nH]cn1)C(=O)N[C@@H](CC1CCCCC1)C(=O)N[C@@H](CC1CCCCC1)C(=O)N[C@@H](CC(N)=O)C(=O)N[C@@H](CC(C)C)C(=O)NC(C)(C)C(=O)N[C@H](C(=O)N[C@@H](CCCNC(=N)N)C(=O)N[C@@H](CCC(N)=O)C(=O)N[C@@H](CCCNC(=N)N)C(=O)N[C@@H](CC1CCCCC1)C(N)=O)[C@@H](C)O)[C@H](C)O
notes: also called compound No. 158
B4: Ac-[D-Pro24, Glu26, Cha27,28,36, Aib31]-PYY(23-36) (peptide)
peptide: Ac-S[dP]RE[Cha][Cha]NL[Aib]TRQR[Cha]-NH2
SMILES: CC(=O)N[C@@H](CO)C(=O)N1CCC[C@@H]1C(=O)N[C@@H](CCCNC(=N)N)C(=O)N[C@@H](CCC(=O)O)C(=O)N[C@@H](CC1CCCCC1)C(=O)N[C@@H](CC1CCCCC1)C(=O)N[C@@H](CC(N)=O)C(=O)N[C@@H](CC(C)C)C(=O)NC(C)(C)C(=O)N[C@H](C(=O)N[C@@H](CCCNC(=N)N)C(=O)N[C@@H](CCC(N)=O)C(=O)N[C@@H](CCCNC(=N)N)C(=O)N[C@@H](CC1CCCCC1)C(N)=O)[C@@H](C)O
notes: also called compound No. 151
B5: Ac-[D-Pro24, Thr26, Cha27,28,36, Aib31]-PYY(23-36) (peptide)
peptide: Ac-S[dP]RT[Cha][Cha]NL[Aib]TRQR[Cha]-NH2
SMILES: CC(=O)N[C@@H](CO)C(=O)N1CCC[C@@H]1C(=O)N[C@@H](CCCNC(=N)N)C(=O)N[C@H](C(=O)N[C@@H](CC1CCCCC1)C(=O)N[C@@H](CC1CCCCC1)C(=O)N[C@@H](CC(N)=O)C(=O)N[C@@H](CC(C)C)C(=O)NC(C)(C)C(=O)N[C@H](C(=O)N[C@@H](CCCNC(=N)N)C(=O)N[C@@H](CCC(N)=O)C(=O)N[C@@H](CCCNC(=N)N)C(=O)N[C@@H](CC1CCCCC1)C(N)=O)[C@@H](C)O)[C@@H](C)O
notes: also called compound No. 147

biological target: T1, human Y2 receptor; experiment: cell-based or functional assay

GBA EC50 Ratio (vs PYY(3-36)), [35S]GTPγS [ratio] | Binder
0.84 | B1
0.63 | B2
2.6 | B3
9.5 | B4
2.1 | B5

biological target: T1, human Y2 receptor; experiment: RBA: [125I]-PYY displacement, hY2R/CHO membranes
Protocol: After incubation at room temperature for 60 minutes, the mixture was filtered through the cell harvester FilterMate (PerkinElmer) using UniFilter-96 GF/C treated with polyethylenimine (PEI) solution (20 mM Tris, 0.3% PEI, pH 7.4), and the filter was washed 3 times with a filtering buffer (50 mM Tris, 5 mM MgCl₂, 150 mM NaCl, 0.03% NaN₃, 0.05% CHAPS, pH 7.4). Thereafter, UniFilter-96 GF/C was dried in a mechanical drier for 1 hour, 15 μl of the liquid scintillator MicroScint O (PerkinElmer) was added to each well, and a measurement was taken using TopCount (PerkinElmer). The data obtained were analyzed using Prism to calculate the IC₅₀ value.

IC50 Ratio (vs PYY(3-36)) [ratio] | Binder
1.9 | B1
0.57 | B2
7.1 | B3
68 | B4
9.3 | B5

From patent publication US20120172293A1 (Takeda / Millennium, published 2012)
